Target: β2 adrenergic receptor modified to have a Flag epitope at the amino terminus and a TEV protease site within the third intracellular loop between residues 254 and 260 of the native protein

B1: Tobacco Etch Virus (TEV) protease, recombinant (protein)
chain: GESLFKGPRDYNPISSTICHLTNESDGHTTSLYGIGFGPFIITNKHLFRRNNGTLLVQSLHGVFKVKNTTTLQQHLIDGRDMIIIRMPKDFPPFPQKLKFREPQREERICLVTTNFQTKSMSSMVSDTSCTFPSSDGIFWKHWIQTKDGQCGSPLVSTRDGFIVGIHSASNFTNTNNYFTSVPKNFMELLTNQEAQQWVSGWRLNADSVLWGGHKVFMSKPEEPFQPVKEATQLMNELVYSQ
Ratio of TEV-cleaved to uncleaved receptor (axis 'cut/uncut'), from the blot of FIG. 11B: Two bars, no error bars and no printed values. The 'Control' bar ends just above the 0.3 tick. The 'Isoproterenol' bar ends between the 1.2 and 1.5 ticks, several times higher than the control.
TEV cleavage of the receptor (Western blot; ratio of cleaved to uncleaved receptor), with and without the agonist isoproterenol: TEV cleavage of the 12 adrenergic receptor was enhanced in the presence of isoproterenol
TEV cleavage of the receptor's third-loop TEV site, seen as the lower (cleaved, N-terminal) band on a Western blot probed with M1 antibody: No lower band without TEV (TEV-/ISO-). Very faint lower band with TEV alone (TEV+/ISO-). Strong lower band and a weaker upper band with TEV plus isoproterenol (TEV+/ISO+).

Reference: patent publication US20040157268
